From PMC4103484, “Functional effects of polymorphisms on glucocorticoid receptor modulation of human anxiogenic substance-P gene promoter activity in primary amygdala neurones” come the findings set out here.

The target of series [1] is T1, glucocorticoid receptor alpha (GRα) (human) (UniProt P04150).
T1 sequence: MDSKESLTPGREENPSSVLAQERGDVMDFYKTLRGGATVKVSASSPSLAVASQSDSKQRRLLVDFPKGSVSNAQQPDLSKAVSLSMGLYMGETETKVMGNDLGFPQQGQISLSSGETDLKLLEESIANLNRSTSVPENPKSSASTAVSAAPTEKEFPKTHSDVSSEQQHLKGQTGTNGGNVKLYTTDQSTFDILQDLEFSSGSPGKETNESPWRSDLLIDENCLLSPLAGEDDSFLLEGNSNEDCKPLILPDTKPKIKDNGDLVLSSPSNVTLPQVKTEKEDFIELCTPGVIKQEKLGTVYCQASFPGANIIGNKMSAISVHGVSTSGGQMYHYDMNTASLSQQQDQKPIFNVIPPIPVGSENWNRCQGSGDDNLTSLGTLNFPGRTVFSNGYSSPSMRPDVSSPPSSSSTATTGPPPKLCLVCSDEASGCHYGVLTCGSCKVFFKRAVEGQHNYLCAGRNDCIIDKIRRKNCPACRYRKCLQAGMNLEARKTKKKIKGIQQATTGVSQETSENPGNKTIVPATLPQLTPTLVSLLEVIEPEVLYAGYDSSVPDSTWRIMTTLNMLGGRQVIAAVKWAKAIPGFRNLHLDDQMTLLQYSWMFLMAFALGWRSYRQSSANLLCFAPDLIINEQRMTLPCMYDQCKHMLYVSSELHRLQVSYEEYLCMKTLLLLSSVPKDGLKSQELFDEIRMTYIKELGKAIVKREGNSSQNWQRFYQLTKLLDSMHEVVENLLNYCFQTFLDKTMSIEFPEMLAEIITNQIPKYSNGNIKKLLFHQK
The series is described as follows: EMSA. The settings on record: reference; EMSA: 20 fmol biotin probe with 2.0 uM GRα or 10 ug nuclear extract; buffer as Hay et al. 2005 with EDTA replaced by 50 uM ZnSO4; competitor 100x; 6% native …. A general note: A gel shift assay detects complexes by their altered migration in electrophoresis.

Series [2] concerns the target T2, glucocorticoid receptor alpha (GRα) (human, UniProt P04150 1-777). As to the kind of experiment: EMSA; EMSA: 20 fmol biotin probe with 2.0 uM GRα or 10 ug nuclear extract; buffer as Hay et al. 2005 with EDTA replaced by 50 uM ZnSO4; competitor 100x; 6% native gel, 0.5x TBE pH 8.3; binding salt, pH and temperature not stated. The settings on record: protein: recombinant; chain copies: 2; blunt.

The target of series [3] is T2, glucocorticoid receptor alpha (GRα). As to the kind of experiment: competition; 100x unlabelled, vs 2GR probe; EMSA: 20 fmol biotin probe with 2.0 uM GRα or 10 ug nuclear extract; buffer as Hay et al. 2005 with EDTA replaced by 50 uM ZnSO4; competitor 100x; 6% native gel, 0.5x TBE pH 8.3; binding salt, pH and temperature not stated. The following applies: protein: recombinant; chain copies: 2; blunt.

Consider “GAAGCAAAAAACGTCCTGTTCAACCCCTGCTCCTG (double strand) [SNP-G (SNPGR-G)]”, for which the binding signal in series [1] was 100 % of SNP-G.

B1: GRE-cons (dsDNA)
DNA 1: TAAGTTTATGGTTACAAACTGTTCTTAAAACGAGG
DNA 2: CCTCGTTTTAAGAACAGTTTGTAACCATAAACTTA
As for B1, the binding result in series [2] is on record as “binds”.

B2: RO (random oligonucleotide) (dsDNA)
DNA 1: CGAGCACCCTTCACCCTCCAGGCTTAACGG
DNA 2: CCGTTAAGCCTGGAGGGTGAAGGGTGCTCG
Consider B2, for which the binding result in series [3] is recorded as “no binding”.
